Laboratory results published in US12247058 (Bristol-Myers Squibb, dated 2025).
Where a chain is given by its changes, count along the chain named. Non-standard residues stand in square brackets, D forms with d. Phe(4-Ac) = CC(=O)c1ccc(C[C@H](N)C(=O)O)cc1

T1: human β-klotho with a C-terminal FLAG tag, stably expressed in a clonal HEK-293 cell line (human, UniProt Q86Z14 1-1044)
T1 sequence: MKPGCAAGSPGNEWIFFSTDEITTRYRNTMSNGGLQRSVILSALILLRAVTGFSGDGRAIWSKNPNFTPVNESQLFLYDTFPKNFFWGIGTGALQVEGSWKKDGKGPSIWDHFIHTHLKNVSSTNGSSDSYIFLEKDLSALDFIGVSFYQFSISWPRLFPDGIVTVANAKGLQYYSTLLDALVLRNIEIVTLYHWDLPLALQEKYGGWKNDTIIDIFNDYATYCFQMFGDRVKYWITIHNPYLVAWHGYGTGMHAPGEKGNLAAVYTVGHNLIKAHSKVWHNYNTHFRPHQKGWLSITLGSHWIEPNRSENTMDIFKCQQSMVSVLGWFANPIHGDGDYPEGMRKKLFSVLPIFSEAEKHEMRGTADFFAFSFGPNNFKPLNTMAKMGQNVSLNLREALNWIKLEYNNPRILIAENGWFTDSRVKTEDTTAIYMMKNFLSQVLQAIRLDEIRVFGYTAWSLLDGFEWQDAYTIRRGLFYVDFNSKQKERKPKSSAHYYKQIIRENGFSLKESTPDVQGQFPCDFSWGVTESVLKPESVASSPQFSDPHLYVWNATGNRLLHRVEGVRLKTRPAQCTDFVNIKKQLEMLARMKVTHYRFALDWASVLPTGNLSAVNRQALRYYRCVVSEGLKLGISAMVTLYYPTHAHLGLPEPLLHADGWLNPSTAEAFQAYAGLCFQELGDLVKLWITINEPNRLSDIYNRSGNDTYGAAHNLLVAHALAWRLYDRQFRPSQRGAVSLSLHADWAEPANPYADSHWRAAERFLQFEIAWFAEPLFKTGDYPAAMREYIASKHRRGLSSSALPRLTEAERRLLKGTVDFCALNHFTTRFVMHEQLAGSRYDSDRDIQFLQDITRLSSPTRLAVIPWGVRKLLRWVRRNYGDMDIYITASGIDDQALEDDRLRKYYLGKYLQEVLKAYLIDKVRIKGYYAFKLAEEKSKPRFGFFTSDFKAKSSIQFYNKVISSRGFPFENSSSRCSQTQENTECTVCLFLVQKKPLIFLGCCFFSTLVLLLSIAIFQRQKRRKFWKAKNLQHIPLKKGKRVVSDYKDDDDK

B1: Compound 23 (ligand)
chain: MHPIPDSSPLLQFGGQVRQRYLYTDDAQQTEAHLEIREDGTVGGAADQSPESLLQLKALKPGVIQILGVKTSRFLCQRPDGALYGSLHFDPEACSFRELLLEDGYNVYQSEAHGLPLHLGGGPARFLPLPGLPPAPPEPPGILAPQPPDVGSSDPLSMVEPSQGRSPSYAS
B2: Compound 2 (ligand)
chain: MHPIPDSSPLLQFGGQVRQRYLYTDDAQQTEAHLEIREDGTVGGAADQSPESLLQLKALKPGVIQILGVKTSRFLCQRPDGALYGSLHFDPEACSFRELLLEDGYNVYQSEAHGLPLHLGSGRGPARFLPLPGLPPAPPEPPGILAPQPPDVGSSDPLSMVEPSQGRSPSYAS
B3: Compound 19 (ligand)
chain: MHPIPDSSPLLQFGGQVRQRYLYTDDAQQTEAHLEIREDGTVGGAADQSPESLLQLKALKPGVIQILGVKTSRFLCQRPDGALYGSLHFDPEACSFRELLLEDGYNVYQSEAHGLPLHLGSGPHRDPAPRGPARFLPLPGLPPAPPEPPGILAPQPPDVGSSDPLSMVEPSQGRSPSYAS
B4: Compound 5 (ligand)
chain: B3 chain with G120P, S121G, G122D, P123K, H124S
B5: Compound 6 (ligand)
chain: B3 chain with G120P, S121G, G122H, P123K, H124S
B6: Compound 12 (ligand)
chain: B3 chain with G120P, S121H, G122H, P123S, H124G
B7: Compound 10 (ligand)
chain: MHPIPDSSPLLQFGGQVRQRYLYTDDAQQTEAHLEIREDGTVGGAADQSPESLLQLKALKPGVIQILGVKTSRFLCQRPDGALYGSLHFDPEACSFRELLLEDGYNVYQSEAHGLPLHLGSGGPARFLPLPGLPPAPPEPPGILAPQPPDVGSSDPLSMVEPSQGRSPSYAS
B8: Compound 20 (ligand)
chain: MHPIPDSSPLLQFGGQVRQRYLYTDDAQQTEAHLEIREDGTVGGAADQSPESLLQLKALKPGVIQILGVKTSRFLCQRPDGALYGSLHFDPEACSFRELLLEDGYNVYQSEAHGLPLHLGGHRDPAPRGPARFLPLPGLPPAPPEPPGILAPQPPDVGSSDPLSMVEPSQGRSPSYAS
B9: Compound 3 (ligand)
chain: MHPIPDSSPLLQFGGQVRQRYLYTDDAQQTEAHLEIREDGTVGGAADQSPESLLQLKALKPGVIQILGVKTSRFLCQRPDGALYGSLHFDPEACSFRELLLEDGYNVYQSEAHGLPLHLPGNKSPHRDPAPRGPARFLPLPGLPPAPPEPPGILAPQPPDVGSSDPLSMVEPSQGRSPSYAS
B10: Compound 7 (ligand)
chain: B9 chain with N122D
B11: Compound 22 (ligand)
chain: MHPIPDSSPLLQFGGQVRQRYLYTDDAQQTEAHLEIREDGTVGGAADQSPESLLQLKALKPGVIQILGVKTSRFLCQRPDGALYGSLHFDPEACSFRELLLEDGYNVYQSEAHGLPLHLSGGPAPRGPARFLPLPGLPPAPPEPPGILAPQPPDVGSSDPLSMVEPSQGRSPSYAS
B12: Compound 11 (ligand)
chain: MHPIPDSSPLLQFGGQVRQRYLYTDDAQQTEAHLEIREDGTVGGAADQSPESLLQLKALKPGVIQILGVKTSRFLCQRPDGALYGSLHFDPEACSFRELLLEDGYNVYQSEAHGLPLHLGSGHRDPAPRGPARFLPLPGLPPAPPEPPGILAPQPPDVGSSDPLSMVEPSQGRSPSYAS
B13: Pegylated Compound 12 (ligand)
chain: MHPIPDSSPLLQFGGQVRQRYLYTDDAQQTEAHLEIREDGTVGGAADQSPESLLQLKALKPGVIQILGVKTSRFLCQRPDGALYGSLHFDPEACSFRELLLEDGYNVY[Phe(4-Ac)](PEG about 30 kDa)SEAHGLPLHLPHHSGRDPAPRGPARFLPLPGLPPAPPEPPGILAPQPPDVGSSDPLSMVEPSQGRSPSYAS
B14: Pegylated Compound 10 (ligand)
chain: MHPIPDSSPLLQFGGQVRQRYLYTDDAQQTEAHLEIREDGTVGGAADQSPESLLQLKALKPGVIQILGVKTSRFLCQRPDGALYGSLHFDPEACSFRELLLEDGYNVY[Phe(4-Ac)](PEG about 30 kDa)SEAHGLPLHLGSGGPARFLPLPGLPPAPPEPPGILAPQPPDVGSSDPLSMVEPSQGRSPSYAS
B15: Pegylated Compound 11 (ligand)
chain: MHPIPDSSPLLQFGGQVRQRYLYTDDAQQTEAHLEIREDGTVGGAADQSPESLLQLKALKPGVIQILGVKTSRFLCQRPDGALYGSLHFDPEACSFRELLLEDGYNVY[Phe(4-Ac)](PEG about 30 kDa)SEAHGLPLHLGSGHRDPAPRGPARFLPLPGLPPAPPEPPGILAPQPPDVGSSDPLSMVEPSQGRSPSYAS
B16: Pegylated Compound 19 (ligand)
chain: MHPIPDSSPLLQFGGQVRQRYLYTDDAQQTEAHLEIREDGTVGGAADQSPESLLQLKALKPGVIQILGVKTSRFLCQRPDGALYGSLHFDPEACSFRELLLEDGYNVY[Phe(4-Ac)](PEG about 30 kDa)SEAHGLPLHLGSGPHRDPAPRGPARFLPLPGLPPAPPEPPGILAPQPPDVGSSDPLSMVEPSQGRSPSYAS
B17: Pegylated Compound 5 (ligand)
chain: MHPIPDSSPLLQFGGQVRQRYLYTDDAQQTEAHLEIREDGTVGGAADQSPESLLQLKALKPGVIQILGVKTSRFLCQRPDGALYGSLHFDPEACSFRELLLEDGYNVY[Phe(4-Ac)](PEG 30 kDa)SEAHGLPLHLPGDKSRDPAPRGPARFLPLPGLPPAPPEPPGILAPQPPDVGSSDPLSMVEPSQGRSPSYAS
B18: Pegylated Compound 6 (ligand)
chain: MHPIPDSSPLLQFGGQVRQRYLYTDDAQQTEAHLEIREDGTVGGAADQSPESLLQLKALKPGVIQILGVKTSRFLCQRPDGALYGSLHFDPEACSFRELLLEDGYNVY[Phe(4-Ac)](PEG 30 kDa)SEAHGLPLHLPGHKSRDPAPRGPARFLPLPGLPPAPPEPPGILAPQPPDVGSSDPLSMVEPSQGRSPSYAS

Biological target: T1, human β-klotho with a C-terminal FLAG …
Assay: cell-based or functional assay

Binder	pERK EC50 [nM]
B1	30
B2	4.6
B3	5.1
B4	69.2
B5	39.1
B6	31.9
B7	21.9
B8	3.9
B9	28
B10	28.4
B11	4.1
B12	28.2

Biological target: T1, human β-klotho with a C-terminal FLAG …
Assay: cell-based or functional assay
Remark: another data set of the same source

Binder	EC50 in the pERK assay [nM]
B13	39
B14	28
B15	30
B16	30
B17	24
B18	20
